The Kd is a measure of binding affinity in units of concentration.

Like-named read-outs stand apart in the source and are kept apart here.

Here are results for two molecules from PMC8799719 (2022).

The target in experiment [1] is T1, triple-helical peptide (THP) [(POG)10]3 (synthetic construct, O of each POG triplet, as printed in (POG)10). Briefly: ITC.
Experiment [2] addresses T1, triple-helical peptide (THP) [(POG)10]3. Description: ITC. This is another data set of the same source.

B1: recombinant activator domain of VhaC (domain or fragment)
chain: SAEQAANVCDVEAFTSNSSNDVLNAIKTQGASCVNALFSAESRIQEAAFESGHMYNIAKHTTDLAKAYAGGGSDELEALFLYLRAGYYAEFYNSKVSFLSWVTPAVKEAVDAFVNNANFYENSDPHGKVLSEVIITMDSAGLQHAYLPQVTQWLTRWDSQYAQNWYMRNAVNGVFTILFGGQWNEQFVQTIGNQTELAKALGDFALRSSAIGASDEFMAANAGRELGRLTKYSGSASSTVKSKLTEIFAQYEMYGRGDAIWLGAADTVSYYADCSDY
In turn, B1 displayed a Kd in experiment [1] of 82.8 µM.

B2: ColG-activator domain (domain or fragment)
chain: YDFEYLNGLSYTELTNLIKNIKWNQINGLFNYSTGSQKFFGDKNRVQAIINALQESGRTYTANDMKGIETFTEVLRAGFYLGYYNDGLSYLNDRNFQDKCIPAMIAIQKNPNFKLGTAVQDEVITSLGKLIGNASANAEVVNNCVPVLKQFRENLNQYAPDYVKGTAVNELIKGIEFDFSGAAYEKDVKTMPWYGKIDPFINELKALGLYGNITSATEWASDVGIYYLSKFGLYSTNRNDIVQSLEKAVDMYKYGKIAFVAMERITWDYD
Molecule B2 displayed a Kd in experiment [2] of 3.28 µM.
